Results published in the RNAGym collection of RNA variant scans (doi:10.1021/acssynbio.7b00057).

B1: Pistol ribozyme (parent)
chain: GGGUCGUUGUUCCAUAAUCGCGUGGAUAUGGCACGCAAGUUUCUACCGGGCACCGUAAAUGUCCGACUGGAGCCGUUCGGGCGGCUAUAAACAGACCUCAGGCCCGAAGCGUGGCGGCACCUGCCGCCGGUGGUAAAAAAGAUCGGAAGAGCACACGUCU

Variants of: B1
Test: aptazyme ON/OFF ratio, guanine; higher = stronger switching; co-transcriptional cleavage with and without guanine

| Variant | aptazyme ON/OFF ratio |
| --- | --- |
| U7A U8G G9C U10C C13U | 1.28 |
| U7A U8C G9C U10G U11C C13G | 1.33 |
| U7A U11C C12U C13A | 1.27 |
| U7C U8G G9A U10G C12U C13G | 1.19 |
| U7A U8C U10G U11C C12G C13A | 1.45 |
| U7G U8A G9U U10C U11G | 1.24 |
| U7C G9U U11C C12A | 1.26 |
| U7C U8A U11C C12U C13G | 1.27 |
| U8A G9A U10A C12A C13U | 1.39 |
| G9A U10A U11G C12A C13U | 1.26 |
| U7C G9A U11C C12G C13U | 1.18 |
| U7A G9U U10A U11C C12A C13A | 1.22 |
| U7G U8C G9U U10A U11C C13A | 1.42 |
| U7C U8G G9A U11G C12G C13G | 1.27 |
| U7C U11G C12U C13G | 1.06 |
| U7G U8A U10C U11A C12U | 1.42 |
| U7C U8C G9C U10G U11G C12G C13U | 1.05 |
| U7A U8G G9C U11G C13G | 1.22 |
| U7C U8A G9C U10C U11A C12A C13A | 1.07 |
| U7C U8A U10G U11C C12U C13U | 1.41 |
| U7C U8A G9U U10C U11G C12A C13G | 1.09 |
| U7A U8A G9U C13G | 1.05 |
| G9C U11A | 1.78 |
| U7A U8G G9C U11A C13G | 1.15 |

| Variant | aptazyme ON/OFF ratio |
| --- | --- |
| U10C C12A C13G | 1.19 |
| U7C U8C G9U U10C U11C C12U C13A | 1.08 |
| U7A U8A G9U U10A U11C C12U C13G | 1.05 |
| U7A G9C U11A C12G C13A | 1.04 |
| G9C U11A C12U C13G | 1.17 |
| U7G U8C U11A C12G C13A | 1.09 |
| U8C G9C C13U | 1.08 |
| U7C G9U U10C U11C C12U C13G | 1.02 |
| U8G U10G C13G | 1.23 |
| U7G G9U U10A U11A C13G | 1.18 |
| U7C U8G G9A U10C U11G C12U C13A | 1.26 |
| U7A U8C G9U U10C U11A C13U | 1.12 |
| U7A U8C U11C C12G C13A | 1.32 |
| U7A G9C U10A U11G C12A C13U | 1.05 |
| U8G U10G U11G C12A | 1.09 |
| U7C U8C U10C U11A C12G C13U | 1.2 |
| U7G U8C G9A U11C C13A | 1.34 |
| U7C U8C G9U U10G C12U C13U | 1.21 |
| U7G U8G G9C U10A C12G C13G | 1.04 |
| U8C G9A U11C C13G | 1.04 |
| U7C U8A G9C U10A C12U C13U | 1.06 |
| U7G G9C U10C U11A C12G C13G | 1.2 |
| U7C G9A U11A C12G C13G | 1.19 |
| U7C U8G G9C U11A C12G C13G | 1.13 |

| Variant | aptazyme ON/OFF ratio |
| --- | --- |
| U7C U8A G9A U10C C13U | 1.51 |
| U7C U8C G9C U10C U11C C12G | 1.13 |
| U7G U8C G9C U11A | 2.39 |
| U8G G9U U10C U11A C13A | 1.06 |
| U10C U11A C13A | 1.25 |
| U7A G9U U10C U11G C12A C13U | 1.11 |
| U7A U8G G9U U10G U11C C12A | 1.19 |
| U7G G9U U10G U11A C13U | 1.17 |
| U8G G9A U10A U11G C12G | 1.48 |
| U7G U8C G9C U10A U11C C12A C13G | 1.19 |
| U7C U8C G9C U10A U11G C12G C13G | 1.12 |
| U8C G9A U10C U11G C13G | 1.44 |
| U7C U8G U10C C12G C13G | 1.13 |
| U8G G9U U11G C12A | 1.32 |
| U7A U8C G9A U10C U11G C12G C13U | 1.1 |
| U10G U11C C12G | 1.43 |
| G9A U10G U11G | 1.11 |
| U7G U8A U10C U11A C12U C13U | 1.34 |
| U7G U8C G9A U10C U11C C12A C13G | 1.28 |
| U7A U8C G9U U10C C12U C13U | 1.16 |
| U7G U8C G9C U10A U11C C12A C13U | 1.27 |
| G9U U10G U11A C12G C13A | 1.18 |
| U7G U8C U10G C12A C13U | 1.2 |
| U7G U8C C12A C13U | 1.08 |

| Variant | aptazyme ON/OFF ratio |
| --- | --- |
| U7A U8C U10C C13U | 2.97 |
| U7A U8C G9C U11C C12A C13U | 1.04 |
| U7A U10C U11G C12A C13U | 1.26 |
| U8A G9U U10G U11C C12A C13U | 1.15 |
| U7A G9A U10A U11A C12U C13G | 1.32 |
| U7G U8C G9C U10C U11G C12G C13U | 1.05 |
| U7C U8G G9A U10G U11C C12G C13G | 1.41 |
| U8A G9C U10G U11C C12U C13G | 1.18 |
| U7C U8G G9A U10A U11C C13A | 1.03 |
| U7A G9A U11C C12G C13G | 1.17 |
| U7C U8C G9U U10A U11G C12A C13A | 1.19 |
| U7C G9C U11A C12U | 1.02 |
| U7G U8C G9A U10C U11G C13G | 1.27 |
| U7A U8A G9U U10G U11A C13G | 1.04 |
| U8C U11C C12U C13G | 1.5 |
| U7C U8A U10C U11A C12U C13U | 1.16 |
| U7C U8A U11G C13A | 1.14 |
| U8A U10A U11A C12A C13U | 1.11 |
| U7A U8A G9U U10G C12G C13A | 1.21 |
| U8C G9A U10A U11G C13A | 1.19 |
| U7C U8A G9A U10C C12G C13G | 1.1 |
| U7G U8C G9A U10C U11A C12G C13G | 1.21 |
| U7A U10C C12A | 1.37 |
| U7G U8C G9C U11A C12U C13A | 1.09 |

| Variant | aptazyme ON/OFF ratio |
| --- | --- |
| U7C U8A G9U U11G C12U C13G | 1.17 |
| U7A G9U U11C C12G C13A | 1.11 |
| U7C U8A G9U U10C U11A C13U | 1.17 |
| U8A U11G C12G C13A | 1.17 |
| U7A U8A G9U U11A C13A | 1.19 |
| U7C G9U U10G U11G C13U | 1.1 |
| U8A G9A U11A C12G C13A | 1.11 |
| U7C G9C U10C C12U C13U | 1.07 |
| U8C C12U C13G | 1.39 |
| U8C G9C U10A U11A C13U | 1.09 |
| U7G U8G G9A U10G U11C C12A | 1.4 |
| U7A G9U U10G U11C C12G C13A | 1.15 |
| U7G U8A G9C U10A C12G C13A | 1.04 |
| U7A C12G C13A | 1.38 |
| U7C U8C U10A C12A C13U | 1.04 |
| U7A U8A G9C U10G C12G C13G | 1.11 |
| G9U U10C U11G C12A C13A | 1.34 |
| U8C G9C U10G C12G C13A | 1.08 |
| U7C G9A U10C C12G C13U | 1.15 |
| U7G U8A G9C U10G U11C C12A C13G | 1.02 |
| U7G U8A G9U U10G U11G C13G | 1.17 |
| U8G G9U U11C C12G C13A | 1.04 |
| U8C G9U U10A U11A C12A | 1.39 |
| U8A G9C U10G U11A | 1.03 |

| Variant | aptazyme ON/OFF ratio |
| --- | --- |
| U7A U8G G9U U10A U11G C12A | 1.06 |
| U7A U8C U10G U11A C12G C13U | 1.2 |
| U7A U8A G9A C12G | 1.4 |
| U7G U10A C12A C13A | 1.21 |
| U7G U8A G9U U10A U11C C12G C13G | 1.05 |
| U8A U10C U11C C12G C13G | 1.1 |
| U8A G9U U10G U11A C13U | 1.03 |
| U7G G9A U10A U11G C12U C13G | 1.09 |
| U7C U8C G9C U10C U11C C13A | 1.06 |
| U7C U8G G9A U11C C12G | 1.11 |
| U7G U8G G9A C12A | 1.41 |
| U7G U8G G9A U11C C12A C13G | 1.15 |
| G9U U10A U11G C12G | 2.12 |
| U8A U10C U11C C13G | 1.04 |
| U7G U8G U10C U11C C12G C13A | 1.24 |
| U7G U8C U10A C12U | 1.31 |
| U7A U8G G9C U10A U11C C12A C13A | 1.17 |
| U7G U10A U11C C13A | 1.04 |
| U7A U8C G9A U10G U11A C13U | 1.04 |
| U7C U8C U10G U11G C12A C13A | 1.14 |
| U7C G9U U10C U11G C12A C13U | 1.11 |
| U7C G9A U10A U11G C12G | 1.15 |
| U7G U8G G9C U10G U11A C13U | 1.12 |
| U7G U8C U10G U11C C12G C13A | 1.28 |

| Variant | aptazyme ON/OFF ratio |
| --- | --- |
| U7A G9U U10A U11A C13A | 1.17 |
| U7A U8C U10C U11A C13U | 1.17 |
| U7A U8A G9A U11G C12U C13U | 1.26 |
| U7G U8G G9U U10C C12U | 1.28 |
| U7C U8G U10C U11G C12G C13G | 1.09 |
| U7G U8C U10G U11A C12U C13A | 1.13 |
| U8C G9C U10A C12U C13G | 1.12 |
| U8G U10G U11G C12G C13U | 1.29 |
| U7C U8G G9C U10G U11G C12U C13U | 1.11 |
| U7C U8C U10C U11A C13A | 1.33 |
| U7A U8G G9C U10C C12U C13A | 1.14 |
| U7A U8G G9A U11G C12A C13U | 1.07 |
| U7A U8G G9A U10C U11A C12G C13U | 1.22 |
| U7G U10C U11A C12U C13U | 1.1 |
| U8A G9A U10A U11A | 1.35 |
| U8G G9U U10C U11A C12A | 1.14 |
| U7C U8C G9C U10A U11G C12A | 1.16 |
| U7A U8A G9A U10A U11C C12A | 1.24 |
| U7C U8C G9C U11G C12A C13U | 1.09 |
| U7A U8C G9C U10C U11C C12U | 0.94 |
| U8A G9U U10A U11C C13U | 1.02 |
| U7C U8A U10C U11A C12A C13A | 1.2 |
| U7C U8C G9A U10G U11G C12U C13G | 1.11 |
